Broadly, the Kd is the equilibrium constant for the complex coming apart.

For one molecule, Kd results are on record in article PMC12006300 (Nature Communications, 2025).

The experiment addresses T1, Recombinant human PDZD8 (1, 28–)—FLAG (human, UniProt Q8NEN9 1-1154, (1, 28–), ∆TM).
T1 sequence (looked up): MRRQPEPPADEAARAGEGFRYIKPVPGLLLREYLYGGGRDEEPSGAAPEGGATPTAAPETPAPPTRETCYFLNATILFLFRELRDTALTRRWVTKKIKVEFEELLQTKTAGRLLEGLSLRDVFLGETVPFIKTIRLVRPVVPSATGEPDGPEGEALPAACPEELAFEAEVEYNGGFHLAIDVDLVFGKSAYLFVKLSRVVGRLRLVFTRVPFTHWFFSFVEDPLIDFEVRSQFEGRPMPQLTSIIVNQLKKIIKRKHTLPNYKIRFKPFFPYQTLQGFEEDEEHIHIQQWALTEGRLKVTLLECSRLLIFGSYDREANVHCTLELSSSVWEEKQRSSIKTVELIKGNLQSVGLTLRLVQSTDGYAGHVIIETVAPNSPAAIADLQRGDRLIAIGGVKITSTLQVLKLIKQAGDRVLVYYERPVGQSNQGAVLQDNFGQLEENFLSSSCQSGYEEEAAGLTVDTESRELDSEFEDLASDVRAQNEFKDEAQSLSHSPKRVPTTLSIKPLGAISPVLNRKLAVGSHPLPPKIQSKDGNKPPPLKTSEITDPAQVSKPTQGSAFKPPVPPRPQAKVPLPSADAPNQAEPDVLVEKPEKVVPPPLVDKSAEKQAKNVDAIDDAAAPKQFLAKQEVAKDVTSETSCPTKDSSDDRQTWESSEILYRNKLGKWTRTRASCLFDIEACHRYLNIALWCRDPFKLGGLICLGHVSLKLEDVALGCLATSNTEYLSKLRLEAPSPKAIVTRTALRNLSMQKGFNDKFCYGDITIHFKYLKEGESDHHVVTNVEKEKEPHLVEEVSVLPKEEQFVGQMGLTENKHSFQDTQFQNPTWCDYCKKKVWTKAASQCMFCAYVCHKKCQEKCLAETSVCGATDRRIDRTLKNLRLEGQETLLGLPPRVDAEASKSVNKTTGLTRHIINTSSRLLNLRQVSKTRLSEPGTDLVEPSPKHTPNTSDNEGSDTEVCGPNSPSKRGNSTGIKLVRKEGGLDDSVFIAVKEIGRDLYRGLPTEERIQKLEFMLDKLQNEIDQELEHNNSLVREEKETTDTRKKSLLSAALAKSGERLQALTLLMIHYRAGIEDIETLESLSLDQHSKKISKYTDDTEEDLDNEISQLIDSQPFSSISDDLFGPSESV
Put plainly: SPR. Background: In SPR one partner is held on a chip, and binding of the other changes the refractive index at the surface.

B1: Recombinant human FKBP8 (1–380)—Histag (domain or fragment, UniProt Q14318 1-380, looked up)
chain: MASCAEPSEPSAPLPAGVPPLEDFEVLDGVEDAEGEEEEEEEEEEEDDLSELPPLEDMGQPPAEEAEQPGALAREFLAAMEPEPAPAPAPEEWLDILGNGLLRKKTLVPGPPGSSRPVKGQVVTVHLQTSLENGTRVQEEPELVFTLGDCDVIQALDLSVPLMDVGETAMVTADSKYCYGPQGRSPYIPPHAALCLEVTLKTAVDGPDLEMLTGQERVALANRKRECGNAHYQRADFVLAANSYDLAIKAITSSAKVDMTFEEEAQLLQLKVKCLNNLAASQLKLDHYRAALRSCSLVLEHQPDNIKALFRKGKVLAQQGEYSEAIPILRAALKLEPSNKTIHAELSKLVKKHAAQRSTETALYRKMLGNPSRLPAKCPG
Regarding B1, the Kd stood at 142 µM.
